Columns and labels:
Experiment in all cases: EMSA
Settings in all cases: EMSA: 10 mM Tris-HCl, 10 mM NaCl, 40 mM KCl, 1 mM MgCl2, 4 mM EDTA, 1 mM DTT, 0.5 mg/ml BSA, 5% glycerol, 2 pmol DNA in 15 ul, room temperature 15 min (pH not …)
[1] = tested on: IntI1 (IntI1Y312F), MBP fusion
[2] = tested on: IntI1A
[3] = tested on: IntI1deltaC

Sequence	binding signal [1] [% bound]	K half [2] [nM]	K half [3] [nM]	K half [1] [nM]
CATTGCGCATTGCGTAGATCTTTTATGTCTAACAATTCATTCAAGCCGACGCCGCTTCGCGGCGCGGCTTAATTCAAGCGTTAGACATTTTCCATGGCTATATTTCAGCATCATCACATCATCATCATCATCATCACAGGGTAGATCATCATCATCAACACGGGACGACAGCAAATGGCACCCTTCTATAAGCTTTTTATGTCTAACAATTCATTCAAGCCGACGCCGCTTCGCGGCGCGGCTTAATTCAAGCGTTAGACATTTTCTCGAGGGTATAGCATTCTAG / CCCTGTGATGATGATGATGATGATGTGATGATGCTGAAATATAGCCATGGACGCAGATCTACGCAATGCGCAATG / CTAGAATGCTATACCCTCGAGCGCAAGCTTATAGAAGGGTGCCATTTGCTGTCGTCCCGTGTTGATGATGATGATC [double-attCaadA7ts + staples]	7	–	–	–
CATTGCGCATTGCGTAGATCTTTTATGTCTAACGCTTGAATTAAGCCGCGCCGCGAAGCGGCGTCGGCTTGAATGAATTGTTAGACATTTTCCATGGCTATATTTCAGCATCATCACATCATCATCATCATCATCACAGGGTAGATCATCATCATCAACACGGGACGACAGCAAATGGCACCCTTCTATAAGCTTTTTATGTCTAACGCTTGAATTAAGCCGCGCCGCGAAGCGGCGTCGGCTTGAATGAATTGTTAGACATTTTCTCGAGGGTATAGCATTCTAG / CCCTGTGATGATGATGATGATGATGTGATGATGCTGAAATATAGCCATGGACGCAGATCTACGCAATGCGCAATG / CTAGAATGCTATACCCTCGAGCGCAAGCTTATAGAAGGGTGCCATTTGCTGTCGTCCCGTGTTGATGATGATGATC [double-attCaadA7bs + staples]	–	100	180	153
CATTGCGCATTGCGTAGATCTTTTGAGTAACCGTTTTGAGTCGAACCCAACGATCCGTTGGTGTTCGAGCTCATCTGTGTTACTCTTTCCATGGCTATATTTCAGCATCATCACATCATCATCATCATCATCACAGGGTAGATCATCATCATCAACACGGGACGACAGCAAATGGCACCCTTCTATAAGCTTTTTGAGTAACCGTTTTGAGTCGAACCCAACGATCCGTTGGTGTTCGAGCTCATCTGTGTTACTCTTTCTCGAGGGTATAGCATTCTAG / CCCTGTGATGATGATGATGATGATGTGATGATGCTGAAATATAGCCATGGACGCAGATCTACGCAATGCGCAATG / CTAGAATGCTATACCCTCGAGCGCAAGCTTATAGAAGGGTGCCATTTGCTGTCGTCCCGTGTTGATGATGATGATC [double-attCL2 + staples]	–	–	–	357
CATTGCGCATTGCGTAGATCTTTTGTTATAACGCCCGCCTAAGGGGCTGACAACGCACTACCACTAAACTCAAACACAACAACAGCAACCACCGCGGCTCAATGGGACTGGAAACGCCACGCGTTGACAGTCCCTCTTGAGGCGTTTGTTATAACTTTCCATGGCTATATTTCAGCATCATCACATCATCATCATCATCATCACAGGGTAGATCATCATCATCAACACGGGACGACAGCAAATGGCACCCTTCTATAAGCTTTTTGTTATAACGCCCGCCTAAGGGGCTGACAACGCACTACCACTAAACTCAAACACAACAACAGCAACCACCGCGGCTCAATGGGACTGGAAACGCCACGCGTTGACAGTCCCTCTTGAGGCGTTTGTTATAACTTTCTCGAGGGTATAGCATTCTAG / CCCTGTGATGATGATGATGATGATGTGATGATGCTGAAATATAGCCATGGACGCAGATCTACGCAATGCGCAATG / CTAGAATGCTATACCCTCGAGCGCAAGCTTATAGAAGGGTGCCATTTGCTGTCGTCCCGTGTTGATGATGATGATC [double-attCVCR2/1 + staples]	–	–	–	353
CATTGCGCATTGCGTAGATCTTTTGTTATAACTTTCGCCTAAGGGGCTGACAACGCACTACCACTAAACTCAAACACAACAACAGCAACCACCGCGGCTCAATGGGACTGGAAACGCCACGCGTTGACAGTCCCTCTTGAGGCGGCCGTTATAACTTTCCATGGCTATATTTCAGCATCATCACATCATCATCATCATCATCACAGGGTAGATCATCATCATCAACACGGGACGACAGCAAATGGCACCCTTCTATAAGCTTTTTGTTATAACTTTCGCCTAAGGGGCTGACAACGCACTACCACTAAACTCAAACACAACAACAGCAACCACCGCGGCTCAATGGGACTGGAAACGCCACGCGTTGACAGTCCCTCTTGAGGCGGCCGTTATAACTTTCTCGAGGGTATAGCATTCTAG / CCCTGTGATGATGATGATGATGATGTGATGATGCTGAAATATAGCCATGGACGCAGATCTACGCAATGCGCAATG / CTAGAATGCTATACCCTCGAGCGCAAGCTTATAGAAGGGTGCCATTTGCTGTCGTCCCGTGTTGATGATGATGATC [double-attCVCRinv + staples]	–	–	–	135
